In assay [1] the target is p60N/p80C heterodimer (mouse) (UniProt Q9WV86). The experiment in a line: AUC.
The target is the same in assay [2]. The experiment in a line: crystal structure.
For assay [3], the target named is p80C (C-terminal domain of katanin p80) (mouse, UniProt Q8BG40 481-658). Put plainly: AUC.
The target in assay [4] is p80C-S538L (mouse, UniProt Q8BG40 481-658, S538L). Put plainly: AUC.
Assay [5] concerns the target p80C-Y574A (mouse, UniProt Q8BG40 481-658, Y574A). The experiment in a line: AUC.
Assay [6] deals with p80C-R615A (mouse, UniProt Q8BG40 481-658, R615A). Put plainly: AUC.

We go through five molecules from PMC5458804 (Nature cell biology, 2017).

Chain of p80C (C-terminal domain of katanin p80) (Q8BG40 481-658): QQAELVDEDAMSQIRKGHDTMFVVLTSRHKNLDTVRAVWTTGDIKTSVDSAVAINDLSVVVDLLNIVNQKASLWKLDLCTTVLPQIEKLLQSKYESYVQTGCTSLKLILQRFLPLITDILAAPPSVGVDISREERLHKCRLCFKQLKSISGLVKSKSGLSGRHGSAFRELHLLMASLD
Chain of p80C-R615A (Q8BG40 481-658 R615A): as the sequence (Q8BG40 481-658) above, with R135A counted along it
Chain of p80C-Y574A (Q8BG40 481-658 Y574A): as the sequence (Q8BG40 481-658) above, with Y94A counted along it
Chain of p80C-S538L (Q8BG40 481-658 S538L): as the sequence (Q8BG40 481-658) above, with S58L counted along it

As to TAMRA-labeled ASPMp peptide, the equilibrium dissociation constant (Kd) in assay [1] was found to be 9 µM. Consider “ASPMp (peptide corresponding to the third repeat of ASPM, as crystallised)”, for which, in assay [2], the stoichiometry N worked out at 1.

B1: p60N (N-terminal domain of katanin p60) (domain or fragment)
chain: MSLQMIVENVKLAREYALLGNYDSAMVYYQGVLDQMNKYLYSVKDTHLRQKWQQVWQEINVEAKQVKDIMKTLESFKL
Regarding B1, the binding result in assay [3], in assay [4], in assay [5] and in assay [6] was “binds” in each case.

B2: p60N-L18A (domain or fragment)
chain: MSLQMIVENVKLAREYAALGNYDSAMVYYQGVLDQMNKYLYSVKDTHLRQKWQQVWQEINVEAKQVKDIMKTLESFKL
Turning to B2, the binding result in assay [3] was “binds”.

B3: p60N-L19A (domain or fragment)
chain: MSLQMIVENVKLAREYALAGNYDSAMVYYQGVLDQMNKYLYSVKDTHLRQKWQQVWQEINVEAKQVKDIMKTLESFKL
B3: the binding result in assay [3] is listed as “binds”.
